Results on 72 sequences are retold here after the supplement of paper PMC10567573.

± gives the standard deviation.

A short description of this series: protein stability index of a GFP-peptide fusion (GPS, HEK-293T) (PSI 1-6); higher = more stable.
[1] abbreviates: treatment: DMSO, c terminus: a fixed tail appended.
Where [2] appears, read: treatment: MLN4924 1 uM, 8 h, c terminus: a fixed tail appended.
Setting [3] is: treatment: DMSO, c terminus: native.
[4] abbreviates: treatment: MLN4924 1 uM, 8 h, c terminus: native.
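Note: 24-mer peptide tiles fused after GFP, lentivirally expressed, FACS-sorted into six equal bins by GFP/DsRed ratio, decoded by Illumina sequencing, PSI is the read-weighted mean bin number.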

For the sequence VLCLIVLPLALYTATFAVHFMVLS [POMT2], the protein stability index was 3.17 ± 0.19 under setting [1] and 3.34 ± 0.43 under setting [2].

On to THLENPTRYHLQQARRQQVKQYLS [TFE3], for which the protein stability index reads like this: under setting [1], 3.38 ± 0.17; under setting [2], 3.64 ± 0.22.

For the sequence GREYPDAQGFAADVRLMFSNCYKY [BRD3], the protein stability index is, setting by setting: under setting [1], 2.38 ± 0.21; under setting [2], 2.59 ± 0.29.

In the case of EFSVPFTEMKLRPRNFRSPAGGG [TNXB], the protein stability index under setting [3] is 3.4 ± 1.1 and the protein stability index under setting [4] stood at 3.09 ± 1.1.

As for VEKNEHCIENNIDLQVNRNFSLAT [R3HDM1], the protein stability index is, setting by setting: under setting [1], 4 ± 0.23; under setting [2], 3.93 ± 0.31.

Regarding SAEYVGHLRATEKMKTRELHRESS [HDAC6], the protein stability index is 4.62 ± 0.36 under setting [1] and 4.47 ± 0.4 under setting [2].

On to KIQNHGHRVLQRLEQRRQQASERE [FCHSD1], for which the protein stability index reads like this: under setting [1], 4.28 ± 0.28; under setting [2], 4.51 ± 0.075.

For the sequence AMAYHHDSRRIFVGQDNGAVMEFH [WDFY1], the protein stability index runs as follows: under setting [1], 3.08 ± 0.15; under setting [2], 2.96 ± 0.32.

For the sequence EPEQTGADAAEDEEVDVTSVDPIA [RBBP5], the protein stability index was 5.64 ± 0.18 under setting [1] and 5.55 ± 0.33 under setting [2].

Regarding QLIVTARTTRGLDPLFGMCEKFLQ [INTS4], the protein stability index under setting [1] worked out at 2.15 ± 0.4 and the protein stability index under setting [2] is 2.06 ± 0.3.

Take LEAEKLVMFQRRYYKPGLLMMCFI [SCD]: the protein stability index came out at 3.26 ± 0.91 under setting [1] and 2.8 ± 0.44 under setting [2].

Consider QGHPPSLFPPKAKSNQPKSLEDLI [ATE1], for which the protein stability index came to 4.25 ± 0.081 under setting [1] and 4.19 ± 0.16 under setting [2].

Take SWACAFTNALTHTVAMSTLNFCGP [OR3A1]: the protein stability index by setting is: under setting [1], 3.47 ± 0.13; under setting [2], 3.15 ± 0.049.

Consider HKHVVQFYHYFEDKENIYILLEYC [PLK2], for which the protein stability index by setting is: under setting [1], 2.63 ± 0.43; under setting [2], 2.37 ± 0.71.

On to KQYQQRAFGWFRCSSCQRSWASAQ [RTP4], for which the protein stability index runs as follows: under setting [1], 2.39 ± 0.34; under setting [2], 2.25 ± 0.54.

For SDFKTDKEGGQAGSGQRVPALEEA [ELOA2], the protein stability index runs as follows: under setting [1], 5.61 ± 0.18; under setting [2], 5.49 ± 0.22.

Turning to FAELSVDMEKILEIIRVILKLYEQ [CCNC], the protein stability index is 2.2 ± 0.12 under setting [1] and 2.69 ± 0.25 under setting [2].

In the case of TAGLLREQVAQLKQKVMTHVSNGC [JUNB], the protein stability index was found to be 3.25 ± 0.2 under setting [1] and 3.25 ± 0.32 under setting [2].

Turning to TLEITLKDIVQTVRSRLEEAGIKV [TENT5C], the protein stability index by setting is: under setting [1], 2.02 ± 0.35; under setting [2], 2.18 ± 0.35.

In the case of NRNQGLNRLMLAVRDMMANFHLND [TCF25], the protein stability index runs as follows: under setting [1], 2.1 ± 0.16; under setting [2], 2.24 ± 0.37.

Turning to LFRWPDLQHAVELKPLCGCHSFAA [SMAD6], the protein stability index turned out to be 2.27 ± 0.26 under setting [1] and 2.13 ± 0.49 under setting [2].

Regarding QKDSYQPPGNVYWPLRGKREAMLE [SPAG8], the protein stability index reads like this: under setting [1], 3.58 ± 0.31; under setting [2], 3.62 ± 0.41.

On to RNSGPVVEKLKQMQEFFGLKVTGK [MMP1], for which the protein stability index reads like this: under setting [1], 3.16 ± 0.079; under setting [2], 3.14 ± 0.39.

In the case of ETIEGAPPLWAASAAGHLDVVRSL [FEM1A], the protein stability index reads like this: under setting [1], 3.78 ± 0.16; under setting [2], 3.72 ± 0.13.

Regarding NCVSSVYLYYDPDYSFLSLGVYSA [ATE1], the protein stability index turned out to be 3.23 ± 0.41 under setting [1] and 3.27 ± 0.11 under setting [2].

With SAENIPGCSSSGSCSQGSGILHYA [CRY1], the protein stability index reads like this: under setting [1], 2.9 ± 0.33; under setting [2], 2.93 ± 0.2.

For SSGEPVDYNVDIGIPLDGETEEL [MYOZ1], the protein stability index reads like this: under setting [3], 5.5 ± 0.21; under setting [4], 5.23 ± 0.17.

Take DSDDPSVTLELSQLSMLPHLADLV [VDR]: the protein stability index is, setting by setting: under setting [1], 3.41 ± 0.31; under setting [2], 3.62 ± 0.33.

With YAIAGYDGNSLLSSIECYDPIIDS [KLHL12], the protein stability index is, setting by setting: under setting [1], 2.83 ± 0.48; under setting [2], 3.01 ± 0.36.

In the case of KQEENDVVEKLNLFLDLLQSYKDL [SNX8], the protein stability index runs as follows: under setting [1], 1.95 ± 0.29; under setting [2], 2.12 ± 0.31.

Take TMGLAGRARVKEKFSPEAFTEQLY [ALG2]: the protein stability index turned out to be 2.94 ± 0.26 under setting [1] and 2.96 ± 0.13 under setting [2].

FFVPLSYLLMVTVILLPYVSKVTG [TMEM175]: the protein stability index by setting is: under setting [1], 3.33 ± 0.26; under setting [2], 3.11 ± 0.31.

For GPHTISNQNNYRLLSCGKILTGCK [ACSBG2], the protein stability index is, setting by setting: under setting [1], 3.21 ± 0.13; under setting [2], 2.84 ± 0.62.

On to VTLKYEIKKLIYVHLVIWLLLVAK [JAGN1], for which the protein stability index is 2.33 ± 0.52 under setting [1] and 2.27 ± 0.3 under setting [2].

Regarding VWWVSQFVKYLIRPQPWLEKEIEE [FUT8], the protein stability index was determined as 2.32 ± 0.46 under setting [1] and 2.035 ± 0.002 under setting [2].

As to AARLLFNMAGVTFRKFIPKCSKIV [DCTD], the protein stability index under setting [1] turned out to be 1.97 ± 0.15 and the protein stability index under setting [2] is 2 ± 0.18.

Regarding SRGSPVRVKREFEPASAREAPASV [USP39], the protein stability index reads like this: under setting [1], 4.47 ± 0.32; under setting [2], 4.49 ± 0.35.

As for LLRRSVEGASSDNGCEVKNRKSIL [PHTF1], the protein stability index runs as follows: under setting [1], 3.99 ± 0.17; under setting [2], 4.05 ± 0.55.

Take PEEKKEEEGSANRRPEDQELESLS [CHGA]: the protein stability index by setting is: under setting [1], 5.58 ± 0.34; under setting [2], 5.71 ± 0.12.

In turn, DDEGDSYSDNPCSCSQSHCCSRYL [SPRY1] returned a protein stability index under setting [1] of 4.45 ± 0.21 and a protein stability index under setting [2] of 4.57 ± 0.23.

For FNGKGKKIRKPRTIYCSLQLQALN [DLX1], the protein stability index is 2.38 ± 0.5 under setting [1] and 2.75 ± 0.31 under setting [2].

In the case of PDPLNICVFILLLVFIVVKCFTSE [RTP4], the protein stability index is 2.97 ± 1.2 under setting [1] and 2.72 ± 0.81 under setting [2].

In the case of QYREAAGPHEAFNKLWELCCQWLK [ZNF449], the protein stability index amounted to 2.93 ± 0.53 under setting [1] and 3.05 ± 1 under setting [2].

Turning to PHAPPFAGGHPAQLGLGRGASTFK [JUNB], the protein stability index runs as follows: under setting [1], 4.11 ± 0.083; under setting [2], 4.34 ± 0.066.

In the case of AREGGGCGRSEVRPVAPRRPRDAV [SMAD6], the protein stability index by setting is: under setting [1], 4.43 ± 0.26; under setting [2], 4.36 ± 0.21.

For the sequence FACPSKTDFFKNIMNFIDIVAIIP [KCNA1], the protein stability index reads like this: under setting [1], 3.29 ± 0.58; under setting [2], 3.1 ± 0.49.

Turning to TTYLKTIEVFDPDANTWRLYGGMN [KLHL20], the protein stability index runs as follows: under setting [1], 2.34 ± 0.23; under setting [2], 2.26 ± 0.042.

Take LGFKANIMNEKCVVENAEKILGYL [SLC6A17]: the protein stability index is 2.43 ± 0.23 under setting [1] and 2.26 ± 0.14 under setting [2].

In the case of KSNNRLKSLSIQYLELDRLVWRNS [FBXO39], the protein stability index came out at 2.38 ± 0.18 under setting [1] and 2.4 ± 0.3 under setting [2].

As for PASGASSIKPEASQMPPPAGGTSD [SCNN1D], the protein stability index by setting is: under setting [1], 5.43 ± 0.14; under setting [2], 5.45 ± 0.19.

Sequence HKLDLNTREWTQLKPNNLSCDLPE [KLHDC10] yielded a protein stability index under setting [1] of 4.4 ± 0.12 and a protein stability index under setting [2] of 4.41 ± 0.3.

EGVIDSSDKEIVAEAERLDVKAMG [EIF5]: the protein stability index by setting is: under setting [1], 5.34 ± 0.12; under setting [2], 5.35 ± 0.15.

With NGINGELTSADRETAEEVSARIVQ [MAP2], the protein stability index under setting [1] turned out to be 5.23 ± 0.22 and the protein stability index under setting [2] is 5.35 ± 0.18.

Consider PRIWSLAHTATASAVEGAPPARPR [IRX6], for which the protein stability index reads like this: under setting [1], 4.44 ± 0.26; under setting [2], 4.43 ± 0.11.

Take GTPMGTFAPLWEVFRVSSDKLALC [FCHO1]: the protein stability index stood at 2.23 ± 0.63 under setting [1] and 2.17 ± 0.41 under setting [2].

Consider LQQIQGLIGGLEAQLSELRCEMEA [KRT15], for which the protein stability index was 3.52 ± 0.43 under setting [1] and 3.67 ± 0.41 under setting [2].

As to NSRRNINYRSFEPILRLLPQGISP [ZER1], the protein stability index was 2.3 ± 0.2 under setting [1] and 2.54 ± 0.17 under setting [2].

For VFIIRKSLLDELMEVQHFRTIYHM [SOAT2], the protein stability index runs as follows: under setting [1], 2.85 ± 0.61; under setting [2], 2.58 ± 0.46.

LNVNLNSVVLRRARGGAVSARYVL [DUSP5] showed a protein stability index under setting [1] of 2.19 ± 0.54 and a protein stability index under setting [2] of 2.26 ± 0.51.

As for AQLFMDHLFAGAEVILLVVMAYDR [OR4A15], the protein stability index runs as follows: under setting [1], 2.2 ± 0.74; under setting [2], 2.75 ± 1.

For the sequence PGSGPGHGSGSHPGPASGPGPDTG [SPAG8], the protein stability index is, setting by setting: under setting [1], 5.36 ± 0.16; under setting [2], 5.34 ± 0.069.

EPNTFSPANVDASVMFRKWRDSKG [UBE2R2] gave a protein stability index under setting [1] of 4.16 ± 0.46 and a protein stability index under setting [2] of 4.4 ± 0.3.

As for SARYVLPDEAARARLLQEGGGGVA [DUSP5], the protein stability index by setting is: under setting [1], 4.33 ± 0.19; under setting [2], 4.13 ± 0.17.

As for IAVKTLGIGKNVICDRTATPLDAF [GFOD1], the protein stability index under setting [1] was determined as 2.43 ± 0.14 and the protein stability index under setting [2] amounted to 2.53 ± 0.17.

Turning to LHAVADIHCENCKTTLGWKYEQAF [YPEL3], the protein stability index worked out at 2.38 ± 0.49 under setting [1] and 2.14 ± 0.46 under setting [2].

Turning to FSLKQEETLDYGKNYNYGMHYCAV [NEUROD6], the protein stability index stood at 2.4 ± 0.18 under setting [1] and 2.07 ± 0.34 under setting [2].

Take NTGKTYFFVANKYWRYDEYKRSMD [MMP1]: the protein stability index under setting [1] worked out at 1.98 ± 0.17 and the protein stability index under setting [2] stood at 2.2 ± 0.19.

GSGLSSRFEEPKGPPARQEDSKEL [CBY2]: the protein stability index by setting is: under setting [1], 5.35 ± 0.27; under setting [2], 5.5 ± 0.25.

For the sequence YESDSSNHCMLSPSSSGHLADSDT [C18orf25], the protein stability index was determined as 5.18 ± 0.33 under setting [1] and 5.28 ± 0.21 under setting [2].

With LKIFTEDLPEVESLPRDRVLGFLI [VPS39], the protein stability index runs as follows: under setting [1], 2.25 ± 0.49; under setting [2], 2.23 ± 0.43.

Consider FVAGGISGTVAAVLTLPFDVVKTQ [SLC25A39], for which the protein stability index is, setting by setting: under setting [1], 2.95 ± 0.63; under setting [2], 2.76 ± 0.84.

On to DTPCTNRGLPLLKTDFGSCLLQPP [DLC1], for which the protein stability index under setting [1] was found to be 3.41 ± 0.19 and the protein stability index under setting [2] came to 3.34 ± 0.34.
